Assay results reported in paper PMC5770421 (2018).

Experiments:
Assay in all cases: BLI
H4K12ac [1] = target: T1, H4K12ac (Saccharomyces cerevisiae, acetyl-Lys12 (mature numbering; K13 in UniProt); biotinylated. Limits 1-21 from the pull-down methods; the BLItz peptide is 1-20. Peptide species not given; a commercial vertebrate peptide would …)
H4K5ac [2] = target: T2, H4K5ac (Saccharomyces cerevisiae, acetyl-Lys5 (mature numbering; K6 in UniProt); biotinylated. Limits 1-21 from the pull-down methods; the BLItz peptide is 1-20. Peptide species not given; a commercial vertebrate peptide would have …)
T2 sequence (main, as listed by the source): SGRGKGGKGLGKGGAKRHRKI

H4K8ac [3] = target: T3, H4K8ac (Saccharomyces cerevisiae, acetyl-Lys8 (mature numbering; K9 in UniProt); biotinylated. Limits 1-21 from the pull-down methods; the BLItz peptide is 1-20. Peptide species not given; a commercial vertebrate peptide would have …)
H4K12ac [4] = target: T1, H4K12ac; remark: listed apart in the source
H4K5ac [5] = target: T2, H4K5ac; remark: listed apart in the source
H4K8ac [6] = target: T3, H4K8ac; remark: listed apart in the source

Kd (H4K12ac [1]): 23.3 nM
Kd (H4K5ac [2]): 20.1 nM
Kd (H4K8ac [3]): 19.6 nM
koff (H4K12ac [4]): 0.00302 s⁻¹
koff (H4K5ac [5]): 0.00317 s⁻¹
koff (H4K8ac [6]): 0.00237 s⁻¹
B1: Dot1p (disruptor of telomeric silencing-1), MBP tag removed (enzyme)
chain: MGGQESISNNNSDSFIMSSPNLDSQESSISPIDEKKGTDMQTKSLSSYSKGTLLSKQVQNLLEEANKYDPIYGSSLPRGFLRDRNTKGKDNGLVPLVEKVIPPIHKKTNNRNTRKKSSTTTKKDVKKPKAAKVKGKNGRTNHKHTPISKQEIDTAREKKPLKKGRANKKNDRDSPSSTFVDWNGPCLRLQYPLFDIEYLRSHEIYSGTPIQSISLRTNSPQPTSLTSDNDTSSVTTAKLQSILFSNYMEEYKVDFKRSTAIYNPMSEIGKLIEYSCLVFLPSPYAEQLKETILPDLNASFDNSDTKGFVNAINLYNKMIREIPRQRIIDHLETIDKIPRSFIHDFLHIVYTRSIHPQANKLKHYKAFSNYVYGELLPNFLSDVYQQCQLKKGDTFMDLGSGVGNCVVQAALECGCALSFGCEIMDDASDLTILQYEELKKRCKLYGMRLNNVEFSLKKSFVDNNRVAELIPQCDVILVNNFLFDEDLNKKVEKILQTAKVGCKIISLKSLRSLTYQINFYNVENIFNRLKVQRYDLKEDSVSWTHSGGEYYISTVMEDVDESLFSPAARGRRNRGTPVKYTR
